Data: patent EP1900816A2
One block for each molecule: values may come before it.

Key:
[1] = target: B7-1 on the surface of mouse cells (WEHI 231, undifferentiated ES cells) (mouse) (UniProt Q00609); assay: flow cytometry, titration on WEHI 231 cells, which carry both B7-1 and B7-2
[2] = target: T1, B7-2 on the surface of WEHI 231 cells (mouse) (UniProt P42082); assay: as above
T1 sequence (looked up): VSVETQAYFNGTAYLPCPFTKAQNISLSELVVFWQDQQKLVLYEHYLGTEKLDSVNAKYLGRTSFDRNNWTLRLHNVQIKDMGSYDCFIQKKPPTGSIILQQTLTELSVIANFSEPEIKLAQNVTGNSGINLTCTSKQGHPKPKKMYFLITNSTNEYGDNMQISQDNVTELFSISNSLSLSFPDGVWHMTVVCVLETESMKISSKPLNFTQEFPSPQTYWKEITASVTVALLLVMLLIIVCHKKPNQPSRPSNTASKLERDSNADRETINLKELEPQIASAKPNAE

[3] = target: ICOS-ligand (GL50) on the surface of mouse cells (WEHI 231, undifferentiated ES cells, splenocytes) (mouse) (UniProt Q9JHJ8); assay: two-colour flow cytometry, RAG1-/- splenocytes, cells stained by anti-CD11B
UniProt Q9JHJ8, sequence (Q9JHJ8 44-322): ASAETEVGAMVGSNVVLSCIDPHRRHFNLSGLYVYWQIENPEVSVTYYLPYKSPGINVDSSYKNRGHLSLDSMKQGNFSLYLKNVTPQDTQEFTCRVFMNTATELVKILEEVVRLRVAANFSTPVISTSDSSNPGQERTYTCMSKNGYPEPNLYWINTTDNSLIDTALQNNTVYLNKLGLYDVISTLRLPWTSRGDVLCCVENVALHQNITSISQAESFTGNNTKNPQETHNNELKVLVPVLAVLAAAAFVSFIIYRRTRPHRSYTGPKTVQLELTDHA

[4] = target: ICOS-ligand (GL50) on the surface of mouse cells (WEHI 231, undifferentiated ES cells, splenocytes) (mouse) (UniProt Q9JHJ8); assay: two-colour flow cytometry, RAG1-/- splenocytes, cells stained by anti-CD4
[5] = target: ICOS-ligand (GL50) on the surface of mouse cells (WEHI 231, undifferentiated ES cells, splenocytes) (mouse) (UniProt Q9JHJ8); assay: two-colour flow cytometry, Balb/C splenocytes, cells stained by anti-pan NK
[6] = target: ICOS-ligand (GL50) on the surface of mouse cells (WEHI 231, undifferentiated ES cells, splenocytes) (mouse) (UniProt Q9JHJ8); assay: two-colour flow cytometry, Balb/C splenocytes, cells stained by anti-CD19
[7] = target: ICOS-ligand (GL50) on the surface of mouse cells (WEHI 231, undifferentiated ES cells, splenocytes) (mouse) (UniProt Q9JHJ8); assay: two-colour flow cytometry, Balb/C splenocytes, cells stained by anti-CD45R/B220
[8] = target: ICOS-ligand (GL50) on the surface of mouse cells (WEHI 231, undifferentiated ES cells, splenocytes) (mouse) (UniProt Q9JHJ8); assay: two-colour flow cytometry, Balb/C splenocytes, cells stained by anti-CD8a
[9] = target: ICOS-ligand (GL50) on the surface of mouse cells (WEHI 231, undifferentiated ES cells, splenocytes) (mouse) (UniProt Q9JHJ8); assay: two-colour flow cytometry, RAG1-/- splenocytes, cells stained by anti-CD45R/B220
[10] = target: ICOS-ligand (GL50) on the surface of mouse cells (WEHI 231, undifferentiated ES cells, splenocytes) (mouse) (UniProt Q9JHJ8); assay: two-colour flow cytometry, RAG1-/- splenocytes, cells stained by anti-CD24
[11] = target: ICOS-ligand (GL50) on the surface of mouse cells (WEHI 231, undifferentiated ES cells, splenocytes) (mouse) (UniProt Q9JHJ8); assay: two-colour flow cytometry, Balb/C splenocytes, cells stained by anti-CD3
[12] = target: ICOS-ligand (GL50) on the surface of mouse cells (WEHI 231, undifferentiated ES cells, splenocytes) (mouse) (UniProt Q9JHJ8); assay: two-colour flow cytometry, Balb/C splenocytes, cells stained by anti-CD4
[13] = target: ICOS-ligand (GL50) on the surface of mouse cells (WEHI 231, undifferentiated ES cells, splenocytes) (mouse) (UniProt Q9JHJ8); assay: two-colour flow cytometry, RAG1-/- splenocytes, cells stained by anti class II
[14] = target: ICOS-ligand (GL50) on the surface of mouse cells (WEHI 231, undifferentiated ES cells, splenocytes) (mouse) (UniProt Q9JHJ8); assay: two-colour flow cytometry, Balb/C splenocytes, cells stained by anti class II
[15] = target: ICOS-ligand (GL50) on the surface of mouse cells (WEHI 231, undifferentiated ES cells, splenocytes) (mouse) (UniProt Q9JHJ8); assay: two-colour flow cytometry, RAG1-/- splenocytes, cells stained by anti CD69
[16] = target: ICOS-ligand (GL50) on the surface of mouse cells (WEHI 231, undifferentiated ES cells, splenocytes) (mouse) (UniProt Q9JHJ8); assay: two-colour flow cytometry, Balb/C splenocytes, cells stained by anti-CD11B
[17] = target: ICOS-ligand (GL50) on the surface of mouse cells (WEHI 231, undifferentiated ES cells, splenocytes) (mouse) (UniProt Q9JHJ8); assay: two-colour flow cytometry, RAG1-/- splenocytes, cells stained by anti-CD11C
[18] = target: ICOS-ligand (GL50) on the surface of mouse cells (WEHI 231, undifferentiated ES cells, splenocytes) (mouse) (UniProt Q9JHJ8); assay: two-colour flow cytometry, Balb/C splenocytes, cells stained by anti CD40
[19] = target: ICOS-ligand (GL50) on the surface of mouse cells (WEHI 231, undifferentiated ES cells, splenocytes) (mouse) (UniProt Q9JHJ8); assay: two-colour flow cytometry, RAG1-/- splenocytes, cells stained by anti-pan NK
[20] = target: ICOS-ligand (GL50) on the surface of mouse cells (WEHI 231, undifferentiated ES cells, splenocytes) (mouse) (UniProt Q9JHJ8); assay: flow cytometry, titration on WEHI 231 cells
[21] = target: ICOS-ligand (GL50) on the surface of mouse cells (WEHI 231, undifferentiated ES cells, splenocytes) (mouse) (UniProt Q9JHJ8); assay: flow cytometry, indirect staining of undifferentiated CCE ES cells
[22] = target: ICOS-ligand (GL50) on the surface of mouse cells (WEHI 231, undifferentiated ES cells, splenocytes) (mouse) (UniProt Q9JHJ8); assay: two-colour flow cytometry, Balb/C splenocytes, cells stained by anti-CD11C
[23] = target: ICOS-ligand (GL50) on the surface of mouse cells (WEHI 231, undifferentiated ES cells, splenocytes) (mouse) (UniProt Q9JHJ8); assay: two-colour flow cytometry, Balb/C splenocytes, cells stained by anti CD69
[24] = target: ICOS-ligand (GL50) on the surface of mouse cells (WEHI 231, undifferentiated ES cells, splenocytes) (mouse) (UniProt Q9JHJ8); assay: two-colour flow cytometry, Balb/C splenocytes, cells stained by anti-CD24

UniProt Q00609, sequence (Q00609 38-306): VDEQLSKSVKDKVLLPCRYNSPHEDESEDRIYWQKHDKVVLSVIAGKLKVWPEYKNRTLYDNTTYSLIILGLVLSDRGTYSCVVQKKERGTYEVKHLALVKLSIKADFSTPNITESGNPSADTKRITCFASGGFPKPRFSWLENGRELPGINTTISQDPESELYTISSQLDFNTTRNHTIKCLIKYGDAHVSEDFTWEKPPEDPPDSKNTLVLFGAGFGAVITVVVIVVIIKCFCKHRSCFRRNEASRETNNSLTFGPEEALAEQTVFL

- concentration at which staining was clearly detectable [1]: 8 ng/mL
- fold binding affinity against mICOS-mIgG2am binding to GL50 on WEHI cells [1]: > 100 fold
- concentration at which staining was clearly detectable [2]: 8 ng/mL
- fold binding affinity against mICOS-mIgG2am binding to GL50 on WEHI cells [2]: > 100 fold
Molecule: mCTLA4-mIgG2am fusion protein (from UniProt P09793 36-161) (Fc fusion)

- % ICOS-lg positive [3]: 31%
- % ICOS-lg positive [4]: 45%
- % ICOS-lg positive [5]: 20%
- % ICOS-lg positive [6]: 97%
- % ICOS-lg positive [7]: 97%
- % ICOS-lg positive [8]: 10%
- % ICOS-lg positive [9]: 5%
- % ICOS-lg positive [10]: 28%
- % ICOS-lg positive [11]: 10%
- % ICOS-lg positive [12]: 8%
- % ICOS-lg positive [13]: 3%
- % ICOS-lg positive [14]: 95%
- % ICOS-lg positive [15]: 5%
- % ICOS-lg positive [16]: 26%
- % ICOS-lg positive [17]: 55%
- % ICOS-lg positive [18]: 97%
- % ICOS-lg positive [19]: 3%
- concentration from which staining was minimally detectable [20]: 1 µg/mL
- fluorescence shift over background [21]: 0.5 log
- % ICOS-lg positive [22]: 43%
- % ICOS-lg positive [23]: 25%
- % ICOS-lg positive [24]: 94%
B1: mICOS-mIgG2am fusion protein (Fc fusion)
chain: EINGSADHRMFSFHNGGVQISCKYPETVQQLKMRLFREREVLCELTKTKGSGNAVSIKNPMLCLYHLSNNSVSFFLNNPDSSQGSYYFCSLSIFDPPPFQERNLSGGYLHIYESQLCCQLKLEPRGPTIKPCPPCKCPAPNLEGGPSVFIFPPKIKDVLMISLSPIVTCVVVDVSEDDPDVQISWFVNNVEVHTAQTQTHREDYNSTLRVVSALPIQHQDWMSGKAFACAVNNKDLPAPIERTISKPKGSVRAPQVYVLPPPEEEMTKKQVTLTCMVTDFMPEDIYVEWTNNGKTELNYKNTEPVLDSDGSYFMYSKLRVEKKNWVERNSYSCSVVHEGLHNHHTTKSFSRTPGK
